One block for each molecule: values may come before it.
How the values were obtained:
[1] = molecular target: PxP(Mcp1ct)-VABct(1,944-2,635)-His6 (C. thermophilum); assay: SEC; Superdex 200 gel filtration in buffer A (20 mM Hepes pH 7.8, 500 mM NaCl, 1 mM TCEP, 10% glycerol); monomer or dimer read from the elution profile
[2] = molecular target: PxP(Mcp1ct)-VABct(1,944-2,635)-His6 (C. thermophilum); assay: negative stain EM; class averages of purified constructs; monomer or dimer
[3] = molecular target: the molecule itself; assay: SEC; Superdex 200 gel filtration in buffer A (20 mM Hepes pH 7.8, 500 mM NaCl, 1 mM TCEP, 10% glycerol); monomer or dimer read from the elution profile

stoichiometry N [1]: 2 | stoichiometry N [2]: 2
Molecule: PxP(Mcp1ct)-VABct(1,944-2,635)-His6

B1: PxP(Spo71sc)-VABsc(1,869-2,545)-His6 (other, S. cerevisiae, UniProt Q03868 380-400, looked up)
chain: SHLPFINILPPWPTELTEEERKPYQLVNDTELDFDVWIQDKTTEDNKNEVVLLKANTSLPWEFEDWRSIREKLDIDKSKNILGVCVSGQNYKTIMNIDATTEGENLHVLSPPRNNVHNRIVCEARCDENNVKIITFRSTLVIENTTSTEIELLVDSKDPNKPSLKYAIKPHQSKSVPVEYAYDSDIRIRPASEDIYDWSQQTLSWKSLLSNQMSIFCSSKEDSNQRFHFEIGAKYDEREPLAKIFPHMKIVVSASMTIENLLPADINFSIFDKREEKRTDFLKTGESMEVHHISLDSFLLMSVQPLQDEASASKPSIVNTPHKSPLNPEDSLSLTLSGGQNLLLKLDYKNIDGTRSKVIRIYSPYIIMNSTDRELYIQSSLLNIAQSKILLENEKRYTIPKMFSFDKEDDKSNRARIRFKESEWSSKLSFDAIGQSFDASVRIKNKEQESNLGINISEGKGKYLLSKVIEIAPRYIISNTLDIPIEVCETGSMDVQQIESNITKPLYRMRNIVDKQLVLKFLGGDSNWSQPFFIKNVGVTYLKVLKNSRHKLLKIEILLDKATIFIRIKDGGDRWPFSIRNFSDHDFIFYQRDPRKVSDPYKDDQSNESSSRSFKPIFYRIPSKSIMPYAWDFPTAKEKYLVLESGTRTREVRLAEIGELPPLRLDKRSKDKPAPIVGLHVVADDDMQALVIVNYKAN
notes: Spo71p of S. cerevisiae, Pro-X-Pro motif, residues 380-400; also called PXP-VABsc; source: E. coli BL21 (DE3), purified (Ni-NTA, Superdex 200)
stoichiometry N [3]: 2

B2: PxP(Ypt35sc)-VABsc(1,869-2,545)-His6 (other, S. cerevisiae, UniProt P38815 2-22, looked up)
chain: SDKISFLPPEPIQLLDEDSTEKPYQLVNDTELDFDVWIQDKTTEDNKNEVVLLKANTSLPWEFEDWRSIREKLDIDKSKNILGVCVSGQNYKTIMNIDATTEGENLHVLSPPRNNVHNRIVCEARCDENNVKIITFRSTLVIENTTSTEIELLVDSKDPNKPSLKYAIKPHQSKSVPVEYAYDSDIRIRPASEDIYDWSQQTLSWKSLLSNQMSIFCSSKEDSNQRFHFEIGAKYDEREPLAKIFPHMKIVVSASMTIENLLPADINFSIFDKREEKRTDFLKTGESMEVHHISLDSFLLMSVQPLQDEASASKPSIVNTPHKSPLNPEDSLSLTLSGGQNLLLKLDYKNIDGTRSKVIRIYSPYIIMNSTDRELYIQSSLLNIAQSKILLENEKRYTIPKMFSFDKEDDKSNRARIRFKESEWSSKLSFDAIGQSFDASVRIKNKEQESNLGINISEGKGKYLLSKVIEIAPRYIISNTLDIPIEVCETGSMDVQQIESNITKPLYRMRNIVDKQLVLKFLGGDSNWSQPFFIKNVGVTYLKVLKNSRHKLLKIEILLDKATIFIRIKDGGDRWPFSIRNFSDHDFIFYQRDPRKVSDPYKDDQSNESSSRSFKPIFYRIPSKSIMPYAWDFPTAKEKYLVLESGTRTREVRLAEIGELPPLRLDKRSKDKPAPIVGLHVVADDDMQALVIVNYKAN
notes: Ypt35p of S. cerevisiae, Pro-X-Pro motif, residues 2-22; also called PXP-VABsc; source: E. coli BL21 (DE3), purified (Ni-NTA, Superdex 200)
stoichiometry N [3]: 2

B3: PxP(Mcp1sc)-VABsc(1,869-2,545)-His6 (other, S. cerevisiae, UniProt Q12106 2-20, looked up)
chain: IKLHEVPPEPVDPASLPHDKPYQLVNDTELDFDVWIQDKTTEDNKNEVVLLKANTSLPWEFEDWRSIREKLDIDKSKNILGVCVSGQNYKTIMNIDATTEGENLHVLSPPRNNVHNRIVCEARCDENNVKIITFRSTLVIENTTSTEIELLVDSKDPNKPSLKYAIKPHQSKSVPVEYAYDSDIRIRPASEDIYDWSQQTLSWKSLLSNQMSIFCSSKEDSNQRFHFEIGAKYDEREPLAKIFPHMKIVVSASMTIENLLPADINFSIFDKREEKRTDFLKTGESMEVHHISLDSFLLMSVQPLQDEASASKPSIVNTPHKSPLNPEDSLSLTLSGGQNLLLKLDYKNIDGTRSKVIRIYSPYIIMNSTDRELYIQSSLLNIAQSKILLENEKRYTIPKMFSFDKEDDKSNRARIRFKESEWSSKLSFDAIGQSFDASVRIKNKEQESNLGINISEGKGKYLLSKVIEIAPRYIISNTLDIPIEVCETGSMDVQQIESNITKPLYRMRNIVDKQLVLKFLGGDSNWSQPFFIKNVGVTYLKVLKNSRHKLLKIEILLDKATIFIRIKDGGDRWPFSIRNFSDHDFIFYQRDPRKVSDPYKDDQSNESSSRSFKPIFYRIPSKSIMPYAWDFPTAKEKYLVLESGTRTREVRLAEIGELPPLRLDKRSKDKPAPIVGLHVVADDDMQALVIVNYKAN
notes: Mcp1p of S. cerevisiae, Pro-X-Pro motif, residues 2-20; also called PXP-VABsc; source: E. coli BL21 (DE3), purified (Ni-NTA, Superdex 200)
stoichiometry N [3]: 2

Reference: publication PMC8978259, “Structural and biochemical insights into lipid transport by VPS13 proteins” (The Journal of Cell Biology, 2022)
